Tests used:
[1] = molecular target: T1, Human IL-2Rβ&IL-2Rα&IL-2Rγ protein (human, UniProt P14784 27-239; P01589 22-217; P31785 23-262, limits assumed); assay: SPR (Biacore, receptor on CM5 chip, IL-2 as analyte), 1:1 binding
T1 construct: Trimeric receptor protein used as SPR ligand; also called IL-2Rαβγ; Human IL-2RB&IL-2RA&IL-2RG
T1 sequence (looked up) 1: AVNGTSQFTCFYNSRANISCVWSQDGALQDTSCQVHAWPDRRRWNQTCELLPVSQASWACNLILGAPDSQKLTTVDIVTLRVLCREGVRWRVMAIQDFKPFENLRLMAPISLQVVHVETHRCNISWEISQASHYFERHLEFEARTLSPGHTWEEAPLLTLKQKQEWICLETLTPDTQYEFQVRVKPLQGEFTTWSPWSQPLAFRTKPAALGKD
T1 sequence (looked up) 2: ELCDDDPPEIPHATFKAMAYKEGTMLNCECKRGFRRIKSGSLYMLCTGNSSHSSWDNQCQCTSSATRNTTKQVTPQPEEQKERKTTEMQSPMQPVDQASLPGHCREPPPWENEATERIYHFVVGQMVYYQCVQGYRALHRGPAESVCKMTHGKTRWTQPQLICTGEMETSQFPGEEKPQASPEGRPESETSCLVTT
T1 sequence (looked up) 3: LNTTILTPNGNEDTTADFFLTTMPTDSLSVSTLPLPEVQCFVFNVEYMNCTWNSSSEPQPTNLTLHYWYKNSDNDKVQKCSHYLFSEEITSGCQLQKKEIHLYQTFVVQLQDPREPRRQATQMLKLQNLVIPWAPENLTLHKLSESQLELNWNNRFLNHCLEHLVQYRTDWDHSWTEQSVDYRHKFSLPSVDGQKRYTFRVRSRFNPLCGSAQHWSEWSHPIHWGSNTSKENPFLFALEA
Procedure: (§1) The human IL-2 receptors used in this study included IL-2Rα/CD25, IL-2Rβ/CD122, common γ receptor/CD132, IL-2Rβ&IL-2Rγ heterodimer protein, and IL-2Rβ&IL-2Rα&IL-2Rγ protein. The IL-2 receptor proteins were immobilized on a Biacore™ sensor chip CM5 according to manufacturer's protocol. […] The resulting sensorgrams were analyzed with the native instrument software to calculate the binding affinities.

[2] = molecular target: T2, Human IL-2Rβ&IL-2Rγ heterodimer protein (human, UniProt P14784 27-239; P31785 23-262, limits assumed); assay: as above
T2 construct: Heterodimer protein used as SPR ligand; also called IL-2Rβγ; Human IL-2RB&G
T2 sequence (looked up) 1: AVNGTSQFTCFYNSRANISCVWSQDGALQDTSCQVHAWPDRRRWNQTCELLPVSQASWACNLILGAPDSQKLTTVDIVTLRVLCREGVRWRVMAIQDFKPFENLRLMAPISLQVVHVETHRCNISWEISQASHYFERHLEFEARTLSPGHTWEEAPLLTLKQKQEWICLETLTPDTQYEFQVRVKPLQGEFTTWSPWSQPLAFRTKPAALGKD
T2 sequence (looked up) 2: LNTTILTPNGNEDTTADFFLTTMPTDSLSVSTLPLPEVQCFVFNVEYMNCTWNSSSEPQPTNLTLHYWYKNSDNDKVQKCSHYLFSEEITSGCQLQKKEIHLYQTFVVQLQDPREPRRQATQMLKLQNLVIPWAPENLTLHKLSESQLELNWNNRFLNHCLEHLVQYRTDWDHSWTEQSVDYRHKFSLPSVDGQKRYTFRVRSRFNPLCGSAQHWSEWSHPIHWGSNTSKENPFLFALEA
Procedure: as §1

[3] = molecular target: T3, Human IL-2RA (IL-2Rα/CD25) protein (human, UniProt P01589 22-217, limits assumed); assay: SPR (Biacore, receptor immobilised on CM5 chip, IL-2 as analyte)
T3 construct: Receptor protein used as SPR ligand
T3 sequence (looked up): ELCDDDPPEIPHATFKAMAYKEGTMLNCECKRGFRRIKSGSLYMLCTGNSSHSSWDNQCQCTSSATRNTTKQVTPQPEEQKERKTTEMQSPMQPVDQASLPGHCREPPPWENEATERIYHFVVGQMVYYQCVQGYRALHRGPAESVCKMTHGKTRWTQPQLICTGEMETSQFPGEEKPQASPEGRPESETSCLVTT
Procedure: as §1

[4] = molecular target: T4, Human IL-2RG (common γ receptor/CD132) protein (human, UniProt P31785 23-262, limits assumed); assay: as above
T4 construct: Receptor protein used as SPR ligand
T4 sequence (looked up): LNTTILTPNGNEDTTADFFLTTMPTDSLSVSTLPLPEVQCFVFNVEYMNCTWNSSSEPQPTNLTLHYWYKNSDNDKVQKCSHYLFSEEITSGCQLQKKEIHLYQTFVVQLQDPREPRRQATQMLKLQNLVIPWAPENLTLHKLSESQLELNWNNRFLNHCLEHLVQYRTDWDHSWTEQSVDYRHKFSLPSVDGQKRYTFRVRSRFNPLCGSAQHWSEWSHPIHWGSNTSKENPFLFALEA
Procedure: as §1

[5] = molecular target: T5, Human IL-2RB (IL-2Rβ/CD122) protein (human, UniProt P14784 27-239); assay: as above
T5 construct: Receptor protein used as SPR ligand
T5 sequence (looked up): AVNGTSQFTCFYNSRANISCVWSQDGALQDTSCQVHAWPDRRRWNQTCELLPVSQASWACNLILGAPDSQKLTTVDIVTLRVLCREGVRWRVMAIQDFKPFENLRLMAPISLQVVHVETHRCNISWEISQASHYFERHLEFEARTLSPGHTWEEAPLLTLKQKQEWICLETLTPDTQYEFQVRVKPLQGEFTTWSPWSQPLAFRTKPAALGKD
Procedure: as §1

[6] = molecular target: T6, human intermediate-affinity IL-2 receptor IL-2Rβγ on cells (human, UniProt P14784 27-551; P31785 23-369); assay: cell-based or functional assay
T6 sequence (looked up) 1: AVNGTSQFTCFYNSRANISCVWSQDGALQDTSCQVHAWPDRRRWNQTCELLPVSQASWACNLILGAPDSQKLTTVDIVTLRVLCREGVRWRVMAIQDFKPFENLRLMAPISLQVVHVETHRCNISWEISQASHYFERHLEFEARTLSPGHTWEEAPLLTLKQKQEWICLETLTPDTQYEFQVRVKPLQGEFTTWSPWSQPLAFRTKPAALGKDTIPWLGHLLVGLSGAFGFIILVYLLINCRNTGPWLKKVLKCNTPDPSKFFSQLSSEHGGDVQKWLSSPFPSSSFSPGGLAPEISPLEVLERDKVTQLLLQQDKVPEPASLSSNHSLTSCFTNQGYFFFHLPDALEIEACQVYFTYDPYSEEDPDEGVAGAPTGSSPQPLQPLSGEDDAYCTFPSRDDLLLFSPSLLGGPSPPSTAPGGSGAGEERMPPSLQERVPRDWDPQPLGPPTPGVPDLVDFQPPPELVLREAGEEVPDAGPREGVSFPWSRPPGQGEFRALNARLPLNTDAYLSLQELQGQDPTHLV
T6 sequence (looked up) 2: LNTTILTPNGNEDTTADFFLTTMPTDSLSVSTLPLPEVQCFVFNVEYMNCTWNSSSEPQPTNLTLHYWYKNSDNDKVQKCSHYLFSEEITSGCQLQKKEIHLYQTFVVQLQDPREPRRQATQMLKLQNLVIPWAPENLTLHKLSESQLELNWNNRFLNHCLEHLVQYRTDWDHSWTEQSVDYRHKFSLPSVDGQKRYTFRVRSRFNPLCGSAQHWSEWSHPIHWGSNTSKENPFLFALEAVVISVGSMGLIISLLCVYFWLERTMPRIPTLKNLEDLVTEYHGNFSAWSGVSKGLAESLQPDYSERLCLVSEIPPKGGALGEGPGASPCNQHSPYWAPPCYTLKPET

B1: CP-trIL-2 012 (ligand)
chain: PTSSSTKKTQLQLEHLLLDLQMILNGINNYKNPLRPRDLISNINVIVLELKGSETTELKHLQSLEEELKDLEEVLNLAQSKNFHTIVEFLNRWITFSQSIISTLT
notes: H1-H3-H2-H4; loops 1 and 2 removed; de-Ala1, C58S, C125S, P65D
Kd [1]: 0.575 nM | koff [1]: 0.000732 s⁻¹ | kon [1]: 1.27e+06 M⁻¹ s⁻¹ | Kd [2]: 0.467 nM | koff [2]: 0.00106 s⁻¹ | kon [2]: 2.28e+06 M⁻¹ s⁻¹ | binding result [3]: no binding (tested: 0.977-250 nM) | binding result [4]: no binding (tested: 0.977-500 nM) | binding result [5]: no binding (tested: 7.813-250 nM) | EC50 (read off the curve): STAT5 phosphorylation in HH cells [6]: ~6 nM

— patent publication US20250163117A1 (CURE GENETICS, published 2025)
